B1: recombinant human Ang1 (rhAng1) (ligand, UniProt Q15389 16-498, looked up)
chain: HIGCSNQRRSPENSGRRYNRIQHGQCAYTFILPEHDGNCRESTTDQYNTNALQRDAPHVEPDFSSQKLQHLEHVMENYTQWLQKLENYIVENMKSEMAQIQQNAVQNHTATMLEIGTSLLSQTAEQTRKLTDVETQVLNQTSRLEIQLLENSLSTYKLEKQLLQQTNEILKIHEKNSLLEHKILEMEGKHKEELDTLKEEKENLQGLVTRQTYIIQELEKQLNRATTNNSVLQKQQLELMDTVHNLVNLCTKEGVLLKGGKREEEKPFRDCADVYQAGFNKSGIYTIYINNMPEPKKVFCNMDVNGGGWTVIQHREDGSLDFQRGWKEYKMGFGNPSGEYWLGNEFIFAITSQRQYMLRIELMDWEGNRAYSQYDRFHIGNEKQNYRLYLKGHTGTAGKQSSLILHGADFSTKDADNDNCMCKCALMLTGGWWFDACGPSNLNGMFYTAGQNHGKLNGIKWHYFKGPSYSLRSTTMMIRPLDF
notes: angiopoietin-1, human, recombinant; also called angiopoietin-1; source: bought: R&D Systems (named for the Boyden chamber experiments)

Biological target: T1, human Tie2-Fc (hTie2-Fc) (Homo sapiens, UniProt Q02763)
T1 construct: Purified human or mouse Tie2-Fc (i.e., Fc-conjugated extracellular domains of Tie2); purchased R&D Systems 313-TI-100
T1 sequence (Q02763 23-748 limits assumed): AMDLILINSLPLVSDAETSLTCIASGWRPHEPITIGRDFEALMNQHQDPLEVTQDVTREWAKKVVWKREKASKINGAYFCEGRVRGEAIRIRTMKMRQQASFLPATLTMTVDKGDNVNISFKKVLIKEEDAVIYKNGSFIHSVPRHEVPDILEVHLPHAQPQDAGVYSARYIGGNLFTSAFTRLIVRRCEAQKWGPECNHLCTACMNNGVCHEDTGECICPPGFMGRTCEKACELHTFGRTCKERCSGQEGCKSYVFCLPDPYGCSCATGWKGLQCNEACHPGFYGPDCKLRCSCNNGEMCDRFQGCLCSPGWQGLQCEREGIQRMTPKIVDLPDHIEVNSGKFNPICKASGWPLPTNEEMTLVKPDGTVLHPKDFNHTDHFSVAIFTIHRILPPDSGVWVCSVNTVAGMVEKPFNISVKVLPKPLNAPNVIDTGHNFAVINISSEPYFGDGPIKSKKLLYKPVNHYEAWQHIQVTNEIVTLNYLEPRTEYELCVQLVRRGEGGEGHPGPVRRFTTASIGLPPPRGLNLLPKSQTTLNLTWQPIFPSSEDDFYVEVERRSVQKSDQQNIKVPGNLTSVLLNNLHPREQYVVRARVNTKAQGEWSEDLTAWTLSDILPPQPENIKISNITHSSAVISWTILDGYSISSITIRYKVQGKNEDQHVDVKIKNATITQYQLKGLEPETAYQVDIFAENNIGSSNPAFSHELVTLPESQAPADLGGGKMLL
Experiment: SPR binding to human Tie2-Fc
Settings: 37°C; for binding to Tie2-Fc: human Tie2-Fc, 0.625–10 nM, pH 7.4, Fig9C
From the text: To better understand the difficulties we had in observing Tie2 activation by VT, we sought to characterize the binding affinity and kinetics of VT to Tie2. Purified human or mouse Tie2-Fc (i.e., Fc-conjugated extracellular domains of Tie2) were first coupled to protein A sepharose beads for pull-down experiments (Fig9A and B) or immobilized on a Biacore CM5 sensor chip for surface plasmon resonance (SPR) experiments (Fig9C and Supplementary Fig S3).
Figure 9 Binding of Vasculotide vs. Ang1 variants to the extracellular domain of Tie2 • A–B Pull-down assay. Input ligands—rhAng1 (A) and VT (B)—were incubated with either protein A sepharose beads only, bead-conjugated mouse Tie2-Fc (mTie2), or bead-conjugated human Tie2-Fc (hTie2). […] The ‘unbound’ fraction is 7% of residual/free ligands remaining in the supernatant. • C Quantitative kinetics analysis by SPR. All analytes were run at increasing concentrations of 0.625, 1.25, 2.5, 5, and 10 nM, at 37°C and pH 7.4. […] Source data are available online for this figure. […]
9. Tie2 Receptor-Binding Assays
Vasculotide (VT) was manufactured by Bachem UK Ltd. T7c (CHHHRHSF) was synthesized by Genscript (Piscataway, NJ, USA). PEG-Cys consists of a single cysteine reacted to each of the 4 arms of PEG-maleimide (Sunbright PTE-100MA, NOF Corporation, Tokyo, Japan). BowAng1 (Ang1-Fd-Fc-Fd) was made and provided by Regeneron Pharmaceuticals, Inc. (Tarrytown, NY, USA). COMP-Ang1 was purified in the Kerbel lab from serum-free culture media conditioned by an engineered CHO cell line provided by Dr. Gou Young Koh (KAIST), according to published protocols (Hwang et al, 2008).
Recombinant human Angiopoietin-1 (rhAng1) and Vascular Endothelial Growth Factor ( rhVEGF) were […]
purchased from R&D Systems. […]
(structural/molecular weight control for VT), and 40 μL of supernatant (7% of residual/unbound ligand) – were similarly boiled in SDS sample buffer. Ang1 samples and controls were resolved by 7.5% polyacrylamide gel electrophoresis (PAGE), electroblotted onto PVDF membranes, and probed with an anti-Ang1 antibody (R&D Sytems, AF923; diluted 1:2,000 in TBS supplemented with 7% BSA and 0.1% Tween-20) at 75kDa (reduced monomers). VT samples and controls were resolved by 17% PAGE, blotted onto PVDF membranes, and probed with an anti-PEG antibody (Silver Lake Research, CH2074; diluted 1:4,000 in TBS supplemented with 7% BSA and 0.05% CHAPS*) at higher “apparent” molecular weights than the expected 14 and 10kDa due to their polymeric nature and large hydrodynamic radii (Zheng et al, 2007). *Note: non-ionic, PEO-based, polymer detergents were avoided at these steps as they cross-react with the anti-PEG antibody used for detecting VT.
Surface Plasmon Resonance (SPR) Experiments: The binding of analytes – VT, T7c peptide, PEG-Cys, rhAng1, COMP-Ang1, BowAng1, and rhVEGF – to the extracellular domain of Tie2 were […]
investigated by SPR using a Biacore T200 Instrument (GE Healthcare). For qualitative binding analysis, mTie2-Fc was dissolved in 10mM acetate buffer (pH 4.5) and immobilized at high density onto a CM5 sensor chip using amine coupling chemistry as described by the manufacturer to a response of 11,500RU.
Binding analysis were performed by exposure of immobilized mTie2-Fc to the analytes diluted in HBS-EP (0.01M HEPES pH 7.4, 0.15M NaCl, 3mM EDTA, 0.005% v/v Tween-20), which was supplemented with 1mg/mL carboxymethyl dextran (NSB reducer, GE Healthcare) to reduce non-specific binding to the sensor chip. Analytes were injected at 30μL/min (association time 120s, dissociation time 120s) at 37 °C, and the chip surface was regenerated each cycle by a 60s pulse of 4M MgCl2. To quantitatively determine the kinetic properties of the interaction (KD, kd, ka) and avoid mass transport limitations, mTie2-Fc and hTie2-Fc were immobilized at low density (1,000-1,200RU) onto separate flow cells of the CM5 chip using amine coupling chemistry. Kinetic analyses were performed using a single-cycle kinetic […]

[1] = Biacore T200, single-cycle kinetics, 1:1 model, 0.625–10 nM analyte, pH 7.4 (HBS-EP), Fig9C

| Molecule | binding to Tie2-Fc (listed as VT) | Off-rate, Kd [1] [s⁻¹] | On-rate, Ka [1] [M⁻¹ s⁻¹] | binding to Tie2-Fc |
| --- | --- | --- | --- | --- |
| CHHHRHSF [Vasculotide, 4-armed maleimide-functionalized polyethylene glycol (PEG) backbone to link together four cysteine-capped T7 peptides, that is, CHHHRHSF] | no binding to Tie2-Fc was detectable |  |  |  |
| B1 |  | 0.00029 | 1.4e+06 | bound strongly |

From article PMC4459817, “Vasculotide reduces endothelial permeability and tumor cell extravasation in the absence of binding to or agonistic activation of Tie2” (EMBO Molecular Medicine, 2015)
